From patent US20070117966A1 (UNIVERSITY OF ROCHESTER, published 2007)
Like-named read-outs stand apart in the source and are kept apart here. No end group written: not given here.

Assays:
purified αvβ3 integrin [1] = molecular target: T1, purified αvβ3 integrin (human, UniProt P06756 31-1048; P05106 27-788, limits assumed); test: competition ELISA on αvβ3 coated wells; competitor: biotinylated FNfn10-3JCLI4 at 800 pM; no inhibition at the highest concentration
T1 construct: Bought purified integrin, coated on plates at 5 µg/ml; also called immobilized human αvβ3 integrin; CD51/CD61
T1 sequence (P06756 31-1048 limits assumed, form in doubt, chain 1 of 2): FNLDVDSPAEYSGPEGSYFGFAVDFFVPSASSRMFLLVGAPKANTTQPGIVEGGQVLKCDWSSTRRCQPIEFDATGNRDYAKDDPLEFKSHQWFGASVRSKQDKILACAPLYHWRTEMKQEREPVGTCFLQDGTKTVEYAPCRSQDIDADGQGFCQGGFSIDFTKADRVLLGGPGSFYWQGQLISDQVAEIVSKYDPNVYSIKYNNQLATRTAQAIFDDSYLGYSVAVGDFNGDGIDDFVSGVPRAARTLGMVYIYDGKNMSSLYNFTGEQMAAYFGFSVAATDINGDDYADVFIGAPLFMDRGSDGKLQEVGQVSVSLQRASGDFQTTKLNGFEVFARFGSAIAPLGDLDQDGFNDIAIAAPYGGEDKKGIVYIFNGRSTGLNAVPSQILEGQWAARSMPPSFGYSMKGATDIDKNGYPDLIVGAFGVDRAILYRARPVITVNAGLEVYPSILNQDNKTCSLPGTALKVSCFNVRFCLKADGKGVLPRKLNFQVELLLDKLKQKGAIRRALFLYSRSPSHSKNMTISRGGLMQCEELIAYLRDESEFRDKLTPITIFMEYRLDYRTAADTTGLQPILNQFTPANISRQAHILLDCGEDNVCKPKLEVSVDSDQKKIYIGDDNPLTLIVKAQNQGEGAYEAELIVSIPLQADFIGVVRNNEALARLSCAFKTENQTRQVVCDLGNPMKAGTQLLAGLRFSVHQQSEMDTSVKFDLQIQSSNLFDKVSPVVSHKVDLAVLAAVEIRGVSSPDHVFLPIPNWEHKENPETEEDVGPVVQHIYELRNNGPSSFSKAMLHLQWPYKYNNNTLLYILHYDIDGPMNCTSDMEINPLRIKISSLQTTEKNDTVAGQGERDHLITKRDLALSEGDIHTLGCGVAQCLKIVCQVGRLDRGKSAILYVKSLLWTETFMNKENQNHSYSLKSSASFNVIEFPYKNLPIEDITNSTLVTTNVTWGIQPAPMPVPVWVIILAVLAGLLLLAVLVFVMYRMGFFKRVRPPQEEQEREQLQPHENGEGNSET
T1 sequence (P05106 27-788 limits assumed, form in doubt, chain 2 of 2): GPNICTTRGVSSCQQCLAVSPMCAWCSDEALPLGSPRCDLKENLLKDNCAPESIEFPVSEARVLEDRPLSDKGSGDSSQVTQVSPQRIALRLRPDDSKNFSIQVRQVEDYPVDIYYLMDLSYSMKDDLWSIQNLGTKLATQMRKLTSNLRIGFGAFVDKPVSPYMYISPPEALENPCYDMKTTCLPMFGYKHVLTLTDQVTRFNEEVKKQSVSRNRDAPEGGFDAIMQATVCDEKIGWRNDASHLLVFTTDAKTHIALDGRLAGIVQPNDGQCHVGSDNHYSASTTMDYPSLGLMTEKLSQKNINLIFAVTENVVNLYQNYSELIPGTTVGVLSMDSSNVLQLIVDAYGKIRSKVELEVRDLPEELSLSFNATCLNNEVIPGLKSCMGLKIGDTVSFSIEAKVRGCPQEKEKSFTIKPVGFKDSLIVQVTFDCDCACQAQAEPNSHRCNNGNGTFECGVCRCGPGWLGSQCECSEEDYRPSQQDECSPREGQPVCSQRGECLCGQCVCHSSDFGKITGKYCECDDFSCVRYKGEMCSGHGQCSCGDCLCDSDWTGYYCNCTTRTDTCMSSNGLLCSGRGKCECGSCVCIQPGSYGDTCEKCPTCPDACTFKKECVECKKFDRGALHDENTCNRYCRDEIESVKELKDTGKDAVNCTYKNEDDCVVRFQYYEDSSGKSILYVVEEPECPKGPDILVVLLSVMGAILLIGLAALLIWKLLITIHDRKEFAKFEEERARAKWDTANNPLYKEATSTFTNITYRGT

purified αvβ3 integrin [2] = molecular target: T1, purified αvβ3 integrin
[3] = molecular target: αIIbβ3 integrin on K562-αIIbβ3 cells (UniProt P08514 32-1039; P05106 27-788); test: cell-based or functional assay
[4] = molecular target: αvβ3 integrin on K562-αvβ3 cells (human, UniProt P06756 31-1048; P05106 27-788); test: cell-based or functional assay
Sequence of αvβ3 integrin on K562-αvβ3 cells (P06756 31-1048, chain 1 of 2): as the sequence (P06756 31-1048 limits assumed, form in doubt, chain 1 of 2) above
Sequence of αvβ3 integrin on K562-αvβ3 cells (P05106 27-788, chain 2 of 2): as the sequence (P05106 27-788 limits assumed, form in doubt, chain 2 of 2) above

| Binder | IC50 (purified αvβ3 integrin [1]) [nM] | IC50 (purified αvβ3 integrin [2]) [nM] | inhibition of adhesion of K562-αIIbβ3 cells to fibronectin, IC50 [3] [nM] | inhibition of adhesion of K562-αvβ3 cells to vitronectin, IC50 [4] [nM] |
| --- | --- | --- | --- | --- |
| GRGDSPK [GRGDSPK peptide] | > 80 | – | – | – |
| QCESGPCCRNCKFLKEGTICKRARGDDMDDYCNGKTCDCPRNPHKGPAT (ligand, ends and bridges not checked; cysteine pairing not given here) [echistatin] | – | 0.93 | 10.2 | 5.9 |
